# Measured values taken from the supplement of paper PMC12042874.
# ± gives the uncertainty stated by the source.
# Assay: amyloid nucleation score (Sup35N fusion, yeast selection) (log enrichment); library NNK2; higher = more nucleation; inactive = no reads after selection
# In short: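 On medium lacking adenine and uracil, psi-negative yeast expressing peptides of 20 random codons fused to Sup35N were grown 7 days at 30°C after a 24-hour induction with 100 μM copper sulfate. Illumina sequencing of input and output plasmid inserts gave the reads, and sequences under 100 input reads were excluded. The nucleation score is the DiMSum log enrichment of output over input reads, centred on the mode score of non-aggregating sequences.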
row,Substance,amyloid nucleation score
1,GSSTSGVCTGVRERAVDCGV,0.007 ± 0.76
2,FGTRHYLYSTSHHAHLGVDM,1.83 ± 0.21
3,SLNAL,-0.296 ± 0.49
4,LQSSKVWDFMLGLGVSGRVE,1.55 ± 0.14
5,NFTYVSIVMLLSRVWVGFNK,inactive
6,KICCIQVLLKYMGQWVQFR,0.053 ± 1.1
7,NYTWSNTRLNYPLRVNATNH,-1.01 ± 1.1
8,YSMVIY,-0.014 ± 0.76
9,FYITRLVHFNLIYEGLGFLR,1.05 ± 0.23
10,SCSWLLSEIGCESVEIRRTV,5.51 ± 0.082
11,RYHSRAWAPYCTTHATVPEV,1.28 ± 0.29
12,MGLVDGMCMFDFDLVLAVVG,inactive
13,YRFKLFTHRYILFNWVFLLL,inactive
14,PWYGSQGNTKSCYSFVMSLP,0.06 ± 0.34
15,RWLTGMLDVVPYTFCEEV,inactive
16,SEWSTYLCSSNI,inactive
17,VKPVSVFL,-0.11 ± 0.63
18,DQSGDQARNCKCFGSSL,0.298 ± 0.5
19,CSTVLRGCVLGQYLYGYSSG,-0.258 ± 0.41
20,SQVERVQFTGIRKWYGAGRS,4.57 ± 0.072
21,VGVWATGRGCSISEYNGKNR,1.09 ± 0.12
22,IFIRMH,2.48 ± 0.16
23,VRFPTSLFSAEQCTPALCSV,0.066 ± 1

row,Substance,amyloid nucleation score
1,RQVANWAVVIGNPMVMNPEG,-0.295 ± 0.63
2,HGYSVFYAVYAEGEMNIINA,-0.172 ± 1.1
3,WLPMGRAGLCYYGEFDNSCW,inactive
4,NSVRFSRLKRFSNCMFNHWR,0.284 ± 0.65
5,VTVSVGSLYTNFATPKDRMV,0.357 ± 0.36
6,CMVIRSW,-0.064 ± 0.34
7,KRMSPWAVFGC,0.872 ± 0.47
8,IIGGTYIWVCVRGPTGRFDG,9.373 ± 0.064
9,VRGAIVQKALDCKSVDKSLE,inactive
10,HLNWHLFILGLFGSATGEDI,-1.48 ± 1.1
11,VCVFMDFHLYMMSARQSTKD,7.894 ± 0.042
12,VSCAESVGIYINYWFLNCQE,8.702 ± 0.03
13,CTCKRLVLRVVVEWA,1.82 ± 0.12
14,YLPFMWCCMIWWAGGVCRL,-0.143 ± 0.76
15,KSCVGYLSAMESSVRL,0.045 ± 0.79
16,DLDIC,-0.2 ± 0.3
17,VCIRVRRDRKVMWDWSV,1.5 ± 0.24
18,FYSFLFFHPIGMFARVYKCF,inactive
19,MLKIHFLPLLGQWTLCRNPL,1.28 ± 0.43
20,YVQRNNARVTLGGTHSFRSV,3.83 ± 0.068
21,RVNEMWIQI,-0.138 ± 0.76
22,HCGTHVYYGAIWV,-0.483 ± 0.27
23,YIGCNNYEGKNKCVIFLSFS,6.079 ± 0.05

row,Substance,amyloid nucleation score
1,HSFNYKFLLTI,-0.001 ± 0.54
2,QVKLFYRLRPSFLCVFPFNL,inactive
3,FSCSSDCLIFVSHRNRVLLN,-0.596 ± 0.37
4,NPTLGHKNVFVRYSF,2.9 ± 0.14
5,LFFCDPWPHLMWHLPRIVHL,-0.748 ± 0.42
6,QNWVCMNRVYDLKDTYEIDL,-0.526 ± 0.35
7,DEEVSWRIG,0.196 ± 0.46
8,GADGTSVLDFCDSVTV,-1.32 ± 0.44
9,DRIQDQRIGYVVEFSIEKVS,-0.742 ± 0.28
10,SSYRLDAWVKKLFSLSQRKG,-0.052 ± 0.32
11,RRMYMQPTKLPFYIPGRMCP,inactive
12,FHVIGRR,0.951 ± 0.58
13,KASMCGMKVWKFFQYLIKMV,-1.1 ± 0.61
14,KTAFKSNTEITSPLVTVLAL,0.555 ± 0.33
15,RLIIPIQSCLWGGWYRTGET,8.106 ± 0.054
16,RMRCTIMLMTGKRTCYLMRE,-0.216 ± 0.41
17,DPTGIGWIKEQSLVCCGGVS,2.84 ± 0.081
18,SLCGRRFNTDEPLLETRSSL,0.817 ± 0.51
19,LLIRYSGFFCAPALTIPCGS,5.12 ± 0.078
20,EYYFSTELGGVFTLY,1.18 ± 0.12
21,KTKLIRVFSTCRT,inactive
22,NPSLELYKYISAIDMGINPP,inactive
